# T1: biotin-conjugated KIFC1 (residues 1-50)
# T1 sequence (peptide, biotin on the N-terminus): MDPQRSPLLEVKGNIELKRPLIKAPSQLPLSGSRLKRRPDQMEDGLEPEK
# Target: T1, biotin-conjugated KIFC1 (residues 1-50)
# Test: BLI
Kd [nM],koff [s⁻¹],kon [M⁻¹ s⁻¹],Binder
9.31,0.000682,73100,"6CD1-IMGT IgG (antibody, V domains shown) VH: EVQLQQSGAELVKPGASVKLSCTASGFNIKDTYIHWVKQRPEQGLEWIGRIDPANGNTKYDPKFQGKATITADTSSNTAYLQLSSLTSEDTAVYYCARGYGSRSAMDYWGQGTSVTVS VL: DIVLTQSPASLAVSLGQRATISCRASQSLFNSRTRKNYMLWYQQKPGQPPKLLIYLASNLESGVPARFSGSGSGTDFTLNIHPVEEEDAATYYCQHSRELPWTFGGGTKLEIK"
10.6,–,–,"6C407 IgG (antibody, V domains shown) VH: EVQLQQSGAELVKPGASVKLSCTASGFNIKDTYIHWVKQRPEQGLEWIGRIDPANGNTKYDPKFQGKATITADTSSNTAYLQLSSLTSEDTAVYYCARGYGSRSAMDYWGQGTSVTVS VL: DIVLTQSPASLAVSLGQRATISCRASKSVSTSGYSYMLWYQQKPGQPPKLLIYLASNLESGVPARFSGSGSGTDFTLNIHPVEEEDAATYYCQHSRELPWTFGGGTKLEIK"
